US20230265134A1

Biological target: Ustekinumab lambda fusion light chain (human)
Assay: LCMS of Fabs cleaved from IgG; 2 HC + 2 LC co-expressed in HEK293

Panitumumab heavy chain, CH1 K147F S183K (from UniProt P01857 1-101)
% HC1-LC2 product: 0%
